Measurements reported in patent US20220153875A1 (Chugai, published 2022).
Residue numbers refer to the chain shown, from its start.

Legend:
human IgA (hIgA) = biological target: T1, human IgA (hIgA) (human); assay: SPR (Biacore T200), antibody captured on ProA/G on CM4 chip, hIgA as analyte, single cycle kinetics, 25 C, in the presence of 100 µM MTA; 100 µM MTA in the antigen buffer
T1 chain: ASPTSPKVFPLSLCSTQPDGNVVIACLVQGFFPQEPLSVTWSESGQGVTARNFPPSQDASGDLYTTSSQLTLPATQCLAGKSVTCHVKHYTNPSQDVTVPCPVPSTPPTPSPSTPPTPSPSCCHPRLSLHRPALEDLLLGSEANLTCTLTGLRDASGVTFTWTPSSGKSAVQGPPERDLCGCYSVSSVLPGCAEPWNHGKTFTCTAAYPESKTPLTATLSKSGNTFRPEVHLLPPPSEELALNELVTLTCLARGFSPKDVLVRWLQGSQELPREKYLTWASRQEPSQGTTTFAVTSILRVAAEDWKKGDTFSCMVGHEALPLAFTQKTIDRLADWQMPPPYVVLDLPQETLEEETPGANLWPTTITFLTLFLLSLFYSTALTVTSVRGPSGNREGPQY

[1] = biological target: T2, human IL-6 receptor (hIL-6R) (human, UniProt P08887 20-357, limits assumed); assay: SPR (Biacore T200), antibody captured on ProA/G on CM4 chip, hIL-6R as analyte, single cycle kinetics, 25 C, in the presence of 100 µM MTA; 100 µM MTA in the antigen buffer
T2 sequence: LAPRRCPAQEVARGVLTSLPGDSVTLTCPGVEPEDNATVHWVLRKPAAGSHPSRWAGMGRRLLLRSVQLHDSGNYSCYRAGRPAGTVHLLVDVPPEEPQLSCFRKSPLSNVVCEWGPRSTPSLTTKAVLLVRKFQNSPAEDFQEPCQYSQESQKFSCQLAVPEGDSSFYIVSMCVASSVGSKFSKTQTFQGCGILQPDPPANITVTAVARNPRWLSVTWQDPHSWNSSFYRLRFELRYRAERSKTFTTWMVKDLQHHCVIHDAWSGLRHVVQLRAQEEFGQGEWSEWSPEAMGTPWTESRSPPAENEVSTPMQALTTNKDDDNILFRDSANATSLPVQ
Procedure: (§1) The effects of MTA and adenosine on the antigen-antibody reaction between the antibodies purified and produced in Example (4-5) and the target antigens were evaluated using Biacore T200 (GE Healthcare). 20 mM ACES, 150 mM NaCl, 0.05% (w/v) Tween20, pH 7.4 was used as the running buffer, and the measurement was performed at 25° C. Changes in the amount of binding between antigens and antibodies were observed by immobilizing ProA/G on the sensor chip CM4 by amine coupling, immobilizing the antibody on it, and then interacting with various antigens as analytes. The running buffer and a buffer prepared by adding either MTA or adenosine to the running buffer at a final concentration of 100 μM were used to dilute the antigens. In addition, the antigens were prepared in concentration series of several steps, and the dissociation constant KD of each clone was calculated by single cycle kinetics analysis from the sensorgram for each antigen concentration. Biacore T200 Evaluation Software (GE Healthcare) was used to calculate the parameters.

human IL-6 (hIL-6) = human IL-6 (hIL-6) (human); assay: SPR (Biacore T200), antibody captured on ProA/G on CM4 chip, hIL-6 as analyte, single cycle kinetics, 25 C, in the presence of 100 µM MTA; 100 µM MTA in the antigen buffer
Sequence of human IL-6 (hIL-6) (human) (P05231 30-212): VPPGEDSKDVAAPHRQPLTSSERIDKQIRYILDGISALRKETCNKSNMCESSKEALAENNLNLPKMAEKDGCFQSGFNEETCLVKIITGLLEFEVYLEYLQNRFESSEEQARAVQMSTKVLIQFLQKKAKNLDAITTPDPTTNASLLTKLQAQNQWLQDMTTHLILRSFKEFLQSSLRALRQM
Procedure: as §1

B1: IAS2T001H-F760mnN17/IAS2T001L-KT0 (antibody, human IgG1, kappa, N297A, V domains shown)
VH: QVQLVQSGAEVKKPGASVKVSCKVSDIQDEQYAFGWVRQPPGKGLEWIGIIGATGHVWYPQWVKGRFTISKDNSKNQVVLTMTNMDPVDTATYYCARGHKQHFTNAFDPWGQGTLVTVSS
VL: DIQLTQSPSSLSASVGDRVTITCQSSQSVYKNNYLSWYQQKPGQPPKLLIYDASTLASGVPSRFSGSGSGTDFTLTINSLEAEDAATYYCHGAYLYLGVDNAFGGGTEVVVKR
notes: From the MTA-concentrated S02 library; Target antigen is hIgA
For B1, the Kd (human IgA (hIgA)) was 689 nM.

B2: 6RS2T007H-F760mnN17/6RS2T007L-KT0 (antibody, human IgG1, kappa, N297A, V domains shown)
VH: QVQLVQSGAEVKKPGASVKVSCKVSNIVLMQHTYGWVRQPPGKGLEWIGIIGGDGHAWYPRWVKGRFTISKDNSKNQVVLTMTNMDPVDTATYYCARGGKDGFTNAWDPWGQGTLVTVSS
VL: DIQLTQSPSSLSASVGDRVTITCQSSQSVFNNNGLSWYQQKPGQPPKLLIYDASTLASGVPSRFSGSGSGTDFTLTINSLEAEDAATYYCHGSQATQIWWDNAFGGGTEVVVKR
notes: From the MTA-concentrated S02 library (humanized SMB0002 template); also called MTA-dependent anti-hIL-6R antibody
Binder B2 has a Kd [1] of 1010 nM.

B3: 6LS2T001H-F760mnN17/6LS2T001L-KT0 (antibody, human IgG1, kappa, N297A, V domains shown)
VH: QVQLVQSGAEVKKPGASVKVSCKVSDIDAMQYTYGWVRQPPGKGLEWIGIIGEGGEVWYPYWVKGRFTISKDNSKNQVVLTMTNMDPVDTATYYCARGYHEGFVNAWDPWGQGTLVTVSS
VL: B2 VL with Q3K, F30L, N31W, G34Y, A95F, T96E, I98W, W99V, W100F
notes: From the MTA-concentrated S02 library; Target antigen is hIL-6
B3 showed a Kd (human IL-6 (hIL-6)) of 126 nM.
